Results taken from the DeepSol protein solubility set.

assay: soluble on expression in E. coli; label from the status in PepcDB or PDB records

Sequence	soluble on expression in E. coli
MHVGIVAQRGNERATSLAGEIREQLRALEVTVWVDTATAEALACAGECGRDTTAFTDCDLVVSIGGDGTFLFAARGAGATPILGVNLGEVGFLNAVAPADAVEAVREEVNRYRETGAVRCREVPRVVAAGDGWASTPALNEVAIQGEQRGHGHGVAVDVRVDGSQYEATRADGVLVATPTGSTAYNLSEGGPLVQPSVDALVVTEMCGADALPPLVTGLDSEIRIRVETLDDGGEGRVVVASDGGRLTRVDPPVEMTVTAADEPARVAGPAADFFEALSKLELEHHHHHH	not soluble
MQRLTSARLFKGAFNVGQKRATNASAGAAAVASRPQALPQPHQASTMTPPAAAPAVAAPQASLTRSASLVAPPSTSAPPSGAAPPMPKKKIIRRIIKRKKASAGVATGEAVHRAAAEAVSQTAAPAAPSEPAFAAATGAQPPRRGLAMLNAIRKHPEGSIEEQPQVVTEKHSEEMATAQEQYHEHTHDRHPAIQETEEAHEHHYHHDAASEKVTSSRYNAASAEAETDATGGSDAMDDATSNGSSSSRKTAMVKGYRIDEVGALCSSSDAMFARRLPSGGCQFFAWPGTPLSVASSAIVSMPDTIRTVHAVFGRAGTPIDIVMDIDAQVPQEYWTMSKIRVYQRKVLDDVLTPLKEEIEKIGEEIETQVVLQSPNLKKASFHVHTRLKDAAFADFYSLHGFLFRFQDRLPNVDLQIYRPNGMLRMFSCMKENRTSAIIVFDESKWNIGFPGGKVSDEQAALHSICVRDPSTFSRVLTFEAPRQSNMPAYGGSKGACGDGSEGALRPPQVLLPLTEKEAIESASRWLRQATEVEVGEWRTWIGLGLCAYRVAYHFRNARNLPRPAMAEMLDAWTEASRKCPLKFHSGECEARWAAFDPEKLGSQSDWWSAYKRLGRLEVPMREAMEREAAFAARCASRYQAAPAAEVPFAPEPPQSAAAVGSVTSASRKMKQQKKAFRRA	not soluble
MSLNIKEASEKSGVSADTIRYYERIGLIPPIHRNESGVRKFGAEDLRWILFTRQMRRAGLSIEALIDYLALFREGEHTLEARAELLKKQRIELKNRIDVMQEALDRLDFKIDNYEGHHHHHH	not soluble
MKTTYNRWWKKKVWFGRKDMSYKVIVDSCGEFTPEMKADGGFEHVALGIQIEDTQWTDDDSLKQEELLLKIAESTSCAKTSCPSPERYMESYHCDAERIYVVTLSAELSGSYNSAVLGKNLYEEEYGEKQIHVFNSRSASVGETLIALKVQQCEKAGMTFEEVVESVECYIEEQHTYFVLENLDTLRKNGRLTGIKSLVAGALNIKPIMGSTPQGTICQKEKARGMKKALVKMADCVAADVVNAGDKILAIAHCNCEERAKEVQRLLKERFAVKSSFIVDTSGISTVYANDGGIIVVV	soluble
MVRTINLYYNNRTVQAIVELKNKPARWHKAKKVQLTPGQTEVKIDLPLPIVASNLMIEFADFYENYQASTETLQCPRCSASVPANPGVCGNCGENVYQCHKCRSINYDEKDPFLCNACGFCKYARFDFMLYAKPCCAVDPIENEEDRKKAVSNINTLLDKADRVYHQLMGHRPQLENLLCKVNEAAPEKPQVVPRCKGHLDKGLGLDQKTAS	not soluble
MKHKLIDDELKYLDERSRDIFRHIVEAYLNDGGPVGSRNLSRLLRQTLSPATIRNVMSDLEHLGLIYAPHVSAGRMPTQSGLRFFVDAFMEAGDLPNEERENIEAQVKEAGHAQSVEHFLVQASQVLSDLSRGAGLVLATKHEGTLKHIEFVRLDGEHALAVLVTQQGGVENRIVHLPEGVTHAQLTEATNFLNAHIQGLTLSEAKEEIARLCSETRAALDHLSHHLVETGLALWGGEGADHKIRLIVRGRSNLLEDVKAEEDLKRLRHLFDDLETRESMAQLLDLTDEGSGVRIFIGSENKLFSLSGSSLVVAPYRDSQQKVIGALGVIGPTRLNYARIVPMVDYTAQLVSQLLR	not soluble
GPGSMRLVDLSLPLYDGMPVYDGDPPVHVTKVCTREKDGWEVRHLQMGSHTGTHVDAPAHMHEDGSNLDEVPLTRFCGPAVVVKVADSSFPPNKGLLFYEAVPADCVPRIVAANAPFVGGPLEEKAERLLLGCGIITYTGLVNVEQLIGESFTFYGLPLRIRGGDGSPVRAVAVMDDK	soluble
MSLNIETIVKGRRMITKFPPQWQEKLDQVAFTHLTPIQEQAFQPIVDGKNFLGISPTGTGKTLAYVFPSLLALTPKKSQQLLILAPNTELAGQIFEVTKDWAQPLGLTAQLFISGTSQKRQIERLKKGPEILIGTPGRIFELIKLKKIKMMSVNTIVLDEYDELLGDSQYDFVQKISHYVPRDHQMVYMSATNKVDQTSLAPNTFCIDLSEQTNDAIQHFYLMVDKRERTDLLRKFANIPHFRALVFFNSLSDLGATEERLQYNGAAAVSLASDINVKFRKTILEKFKSHQLSLLLATDLVARGIDIDNLDYVIHFDVARDKENYTHRAGRTGRMGKSGIVITFVSHPEDLKKLKKFAKVSEISLKNQQLHFINEGHHHHHH	not soluble
MEDGRTSDKVLEKIQEKIFSGEWKPGQKIMSETKLAEDLNVSRVSVREAIEKLAAFNIVSKKKGGGTFINDLGPSVYLNSLLPMLILNRDNYLEILEFRLITEPESAKLCAERCDDELIISLEKIYDNMKNYKDDIQKFTKEDLNFHTKIAEGTKNSLIIKINELLMNILEYHQRGLYETLGPKGGICEHKFILDAIKNRDSELAFIYSRRHAERTINDLKKLQT	not soluble
MGHHHHHHSHMNFIKDNSRALIQRMGMTVIKQITDDLFVWNVLNREEVNIICCEKVEQDAARGIIHMILKKGSESCNLFLKSLKEWNYPLFQDLNGQSLFHQ	not soluble
MGSDKIHHHHHHMQTIQLSNIFKQQAHQTILKDFTLTIPAQSNIGIQMSHVEATTLFNLLRQTTPQTSGVMTGLTPARIQAIFHDDGFYPQLTVSTYLKTFQHISTFETDLDDILQYFALKDVAHTKIKHLSFDQQQRLALLRAFILQPDLLLIESPLTNLTNAGIELYLAALAYTREHGVTVLLTSYSLEELVLTSTTIFRYRPNQGLELTDLATESSSDSAHTSEDTPRPIFKIASKVEDKTVFFSPNEIDFIESVNGVSQLNVSGEQFTSSQTMSELEQQLTTLGFFRCHRSYLVNLQQIAELISYSRNSYTLILKNKSKLPLSRGKLTDLKALINF	not soluble
MGGDMLPSVLKDNLRLPVIASPLFIISHPQLTLAQCKAGVIGAFPALNARPESQLDEWLAMITEELAAYNRANPERPAAPFAVNQIVHMSNRRLEHDLGLCVKYKVPVVISSLGAVPEVNAAVHSYGGIVLHDVINDRHARSAIRKGADGLIAVAAGAGGHAGTLSPFALIQEIREWFDGPLLLAGAIANGGSILAAQAMGADMAYIGSPFIATEEARASDGYKQALVDAQAKDIVYSNYFTGVHGNYLKSSIVASGMDPDNLPEADPSKMDFETATGGAKAWKDIWGAGQGIGAIKAVEPVAALVDRLAAEYEAAKGRICAKA	not soluble
MKNIAAAGVLERIRRLAPQASVPPYRTVEEWREWQLAEGRKRSEEINRQNHQLRVEKILNRSGIQPLHSKCSFANYQVQNDGQKYALSQAKSIADELMTGCTNFVFSGKTGTGKNHLAAAMGNRLMAKGRSVIIVTVSDVMSVLHDSYDNGKSGEKFLQELCSVDLLVLDEIGVQRETKNEQVVLHQIIDRRTASLCSVGMLTNLNHAAMSTLLGERIMDRMTMNGGRWVTFNWDSWRPNVSNMRVVK	soluble
MSLTDHGFSFCAHAEQYAIIGSLSQLETSDNRDCDIRRPALNRCMAEKGTLRPEAAQIFQRLEALGLKQRELAQALGIEENKISKVRAGERQFKGAELLAAYEWLDQREAEAHMPRLSRVAAVGQQVIPATPVEGEVVQIQKLDLSLSMGPGTLIDGYVESELVSFDLGFVRLFTRAASDHLRLVTGIGDSMEPTLKWGDLILIDTTDRMLSKQDGIYWINLYGAAGIKRLRAIGPRTILVKSDNPGVDDQEVEAEDLRIEGRAIWATRGLEGHHHHHH	soluble
MTTEAPVRVEDKLYQNRYLVDVGNAHIKVKPHTKPSPQLLALLKVCPAHCYELNSNGQVEVTPDGCVECGTCRVLAEGGGDIEWSYPRGGYGVLFKFG	not soluble
MGSDKIHHHHHHMKGGTEPVETSKMEKAAALLGGMIDLPTIPAVAIQVLSLLDEPEVDVDDVAELVLTDQVMAARVLKMVNSPLYRPATEITSLKGALVYLGLRHIREFILTCSIIQCSEGKDGVLGVKPFWEHSFGVGIVARLIAEKVGYHDTEKAYIGGIIHDIGEVFLSYYMRDEFQKIVDSISDKPHKLVEAEEEFLGTTHCEIGLCIARAWRFPDDYCEVIAHHHAPQEAKNAPRLTAIVNLADLFCNVRQLDYGGKAWVSFSLADEPAWGMLQGPGSRLSELDIERFCYELDDRVEEISELVGNIFKNG	not soluble
EMRNLGGGEILHACPQESLDKPLPCIVFYHGFTSSKLVYSYFAVALAEAGFRVIMPDAPEHGARYQGDEAGRMQRFWPILQQNFREFPALREAIIAEGWLEGERLAVAGASMGGMTALGIMTHHPELNSVACLMGSGYFRSLSQTLFPSPDFDVDSLNEWDVSHQLASLARRPLLLWHGDADDVVPPEETFRLEQALRQGDLAARLTCVWQKGVRHRITPEALATTVAFFQQHL	not soluble
MNSAVGAELFMGDDGVSLRPGLGGTESVLESWRYIMGKLRVGRFLISSRVNGPGRRFVIWFQGCPIRCRGCLNPEFHDEDGGHLIETARLVDMIRDLRDEIEGVTFTGGEPLAQAMELVKLAGAVKSMGLTVVCFTGYEMDEILKGNIEGGLELLEFVDVLIDGPYIEEKSAPLLWRGSTNQDVYFLTERYAEFRDRVMACSEMEAELKVGADGVYMTGIFDVEFWEELRRRLGDGSLEHHHHHH	not soluble
MFLKSLIFVLTFQFSNGNPVEQVHLSLSGKADEMVVTWLTHDPRKFTC	not soluble
GPGSMHPGLPRAFPDTEWQTVADIFRRRAPVSFLAPNSSASATADPAAAAEAWVQQEIGYYEANYTTVEDLNVCVTTFNVGCKKPVLPLTSLACLTSGGGGADGAPVRPTDLIVVGLQEVDMSATALFKQETEASAPWVAGLNAAIGASRCSSTAASSSSGAGASPYYAFPPKQLVGLLLCVFIRRPLLSAVSESSTATVATGALGSMGNKGAVGFHLVLHRTSICIITAHLAAGQSNVSKRNEDINTILKSMDFNAARRAEMQISASASMPMDESVFLELHPRDHDIIIVAGDLNYRLRLPYETAVHLANAGQFSELLQYDELATEMKSPHTPWLNFINFTPTHMPTYRFDIGTDAYDTSEKRRVPSYTDRICMWSRRKSMESRVRLDRLSALMEVRSSDHKPVQALARIPISVEVPAQKAQVISSLREKVAAVGLAQASSAKISLSTSKVNFQAQSFHHCGAQETVTVQNSGDCVAVVRVVRQREGDYSEGTWLRATPLELAILPGESQDVVIETAIDPRCMTWLAAWSPYQGRGRVSLTSVLLFCCRNGPVQAVECQCLLSPSVFGNGLDSIALLQDKPCVEAYAQKADFEEVVRQVRPHVPKELWYLAHVIAQHPREGGLFTRSTDKDVCCRIMELLDTKNAPLPAGTDVHCAAECLLAFLKNLLEPVVPYAQYTTALAAGRAKGKAPLQFLRQLPTMHANVWIYVMSLLNYLLRPVHSCDNELDANFLAHIFSAVLIVRPTNAQGAIPARLQQGGGVDQQVRQQLQQESDDALALVAYFLSTPPSMLAGVE	not soluble
